In PMC3169740:

Target: fluorescein-labeled SC pseudorepeat-repeat-1 peptide PR-R1[5F] (S. aureus)
Assay: other fluorescence titration

Substance “fibrinogen fragment D (domain or fragment)” has a Kd of 36 nM and a stoichiometry N (mol of fragment D/mol of peptide) of 0.77.
